Results as given in the DeepSol protein solubility set.

Assay: soluble on expression in E. coli; label from the status in PepcDB or PDB records

Row | Sequence | soluble on expression in E. coli
1 | MSNNGSSPLVLWYNQLGMKDVDRVGGKNASLGEMITNLSGMGVSVPNGFATTADAFNQFLDQSGVNQRIYELLDKTDIDDVTQLAKAGAQIRQWIIDTPFQPELENAIREAYAQLSADDENASFAVRSSATAEDMPDASFAGQQETFLNVQGFDAVLVAVKHVFASLFNDRAISYRVHQGYDHRGVALSAGVQRMVRSDLASSGVMFSIDTESGFDQVVFITSAWGLGEMVVQGAVNPDEFYVHKPTLAANRPAIVRRTMGSKKIRMVYAPTQEHGKQVKIEDVPQEQRDIFSLTNEEVQELAKQAVQIEKHYGHPMDIEWAKDGHTGKLFIVQARPETVRSRGQVMERYTLHSQGKIIAEGRAIGHRIGAGPVKVIHDISEMNRIEPGDVLVTDMTDPDWEPIMKKASAIVTNRGGRTCHAAIIARELGIPAVVGCGDATERMKDGENVTVSCAEGDTGYVYAELLEFSVKSSSVETMPDLPLKVMMNVGNPDRAFDFACLPNEGVGLARLEFIINRMIGVHPRALLEFDDQEPQLQNEIREMMKGFDSPREFYVGRLTEGIATLGAAFYPKRVIVRLSDFKSNEYANLVGGERYEPDEENPMLGFRGAGRYVSDSFRDCFALECEAVKRVRNDMGLTNVEIMIPFVRTVDQAKAVVEELARQGLKRGENGLKIIMMCEIPSNALLAEQFLEYFDGFSIGSNDMTQLALGLDRDSGVVSELFDERNDAVKALLSMAIRAAKKQGKYVGICGQGPSDHEDFAAWLMEEGIDSLSLNPDTVVQTWLSLAELKK | not soluble
2 | MNITPFPTLSPATIDAINVIGQWLAQDDFSGEVPYQADCVILAGNAVMPTIDAACKIARDQQIPLLISGGIGHSTTFLYSAIAQHPHYNTIRTTGRAEATILADIAHQFWHIPHEKIWIEDQSTNCGENARFSIALLNQAVERVHTAIVVQDPTMQRRTMATFRRMTGDNPDAPRWLSYPGFVPQLGNNADSVIFINQLQGLWPVERYLSLLTGELPRLRDDSDGYGPRGRDFIVHVDFPAEVIHAWQTLKHDAVLIEAMESRSLRLEHHHHHH | not soluble
3 | MENRESAQRPHERLDAWRDSMELVEMIYRLTEVFPDQERYGLTAQLRRAAVSIPSNIAEGAARRSTPDYSRFLSIARGSLSELDTQVQIAARLGYSRSEDDQSVRRQVDLVFAKLTALMNALRRRGAA | soluble
4 | MVYSVPMMCAQDLRRSAMLDVVVAGGGYVGLSAAVAIKQAAPHLNVQVIEAAPDDVWKKDVRASAVIAAATRMLDVFGIWNEIEPEAQPIHKMVVTDSKTADPVRPVFLTFDGAVEEGRPFAHMVPNVAMVSALRGLCERIGIKIRHGISVSGFTAGPQSTAITLSDGTSLEARLLIACDGVRSALRDMAGIKTVHWAYDQSGIVTTVEHERPHEGCAEEHFLPSGPFAVLPLKGNRSSLVWTERTADAVRLVASDDLVFEEELERRFGHKLGPVRPVGPRRAFPLGLTLARSFVAPRFALAGDAAHGIHPISGQGLNLGFKDVAALAETVVEADRLGLDIGSLNVLERYQSWRRFDTLRMGVTTDVLNRLFSNDVGPIRVMRDFGLGVVDRLPGLKSYFIGQAAGTTDANAPRLLAGEALLEHHHHHH | not soluble
5 | GPGSMFTQISNAHTEVVTSLVFSPHVVTTCEGGLLCSTSGDDTTALWDLRAGPGVSQRAAHLTGHHVGPVNHALFHPSNAHTLLTASDDRSIGCWDLRRPDRVVGAVSGFQEGVNKMLWLPVTSDGCRGTGGSSSGGGGSVVSACDDGHVYVHALALPDSGSESATVAGAAPVPQVGALVDKFRVSTSTVNDIVLAPNSTSILITASEDCALRSWSLRHAQQMTNTSVGLMEDRLLATLDEFENPVNHVVVVPSGLMAPVESRAAGEDPESSSSRSPAGAAGDAEESADAAAASTGFPRAYQQVHGGDDVEDAEVGSDAGSSAGARQPRRATDISEAAGTACWLLAACSECVFGVDFALRVGEFGTGARAFVGHQDYVRGLEFTSEGKLLTVSDDSTAIEWDLATTDPIRQVKLHEGLVMSSAVSPSRNLLATGTDRGELRVWRLPFATERIGGSP | not soluble
6 | DHPFTSAPTFGDFGSNQQAMPLYRVEPVYPSRALKRGVEGFVTLSFTIDTTGKAVDINVVDANPKRMFEREAMQALKKWKYQPQIVDGKAIEQPGQTVTVEFKIAK | soluble
7 | MGSDKIHHHHHHAATYQVKKLMGFRHPTSYYAKSAKSGYLWNKSHTKRLHNLKNYPKTTWYATAKYSMKSVRNSGTYLKVTNGTGKAKGYVWTGYLKKGVNPANPNGTLTDPFGAAMSTYNVDDNLNKQLLNLFPGTIPDEPLQLAADFIFANAGANPDDYTSVIEELVGAENEPSVFRLSSDKRIQKNQNFLSFQRNSLKEELVTKHKKFTSFKGYRIGAYAFPKHDKRYGESMILLLPSN | not soluble
8 | MASATTSSKNGKPLVVVYGDYKCPYCKELDEKVMPKLRKNYIDNHKVEYQFVNLAFLGKDSIVGSRASHAVLMYAPKSFLDFQKQLFAAQQDENKEWLTKELLDKHIKQLHLDKETENKIIKDYKTKDSKSWKAAEKDKKIAKDNHIKTVPTAFINGEKVEDPYDYESYEKLLKDKIKLEHHHHHH | soluble
9 | MGSDKIHHHHHHMPKNRDAARASLENLYRIFTVPEAPDSTLGAIDQAIAGDVAGFLQTHIVAIERPLEEIEADFSSFSIPEEPTYVSEYTEFVKENLVAHSVHTASPAFVGHMTSALPYFMLPLARLMTALNQNVVKVETSKAFTPMERQVLAMLHHLVYGRNDDFYPQWIHNSQHALGAFCSGGTLANVTALWVARNRLFAPDGEFRGIAQEGLARALKHRGADGIAVLVSERGHYSLGKAADLLGIGRDDLIKIKTDANNRIDLKALREECRRLQDRNTLPLALVGIAGTTETGNVDPLEAMADLAQELGCHFHVDAAWGGPTLFSDRHRHLLRGIERADSVTIDGHKQLYVPMGAGMVVFKDPTALSAIEHHANYILRHGSKDLGSHTLEGSRPGKAMLVHAGFSIIGRKGYELLIDMGIERARTFADMIQRHPDFELISEPELNILTYRYCPPAIQQALTDATAQQRAAINGLLDQVCQLLQKYQREAGKTFVSRTRLHVARHDMELTVLRVVLANPLTTDEILEAVLAEQCEIVRLPEIQALLRQAEELCPGLAKAV | not soluble
10 | MSLTKIVIIGGVAGGASAAARARRLSEDAEIIMFERGPYVSFANCGLPYHIGGDIKERSNLLLQTPESFLARFNVDVRTMNEVLRINRAAKTITVRNLLDQSEYDENYDFLLLSPGAGPVIPPIPGIQNPLTHSLRNIPDMDKIIQTLQMNKPEHATVVGGGFIGLEMMEAFHHLGIKTTLIEMADQVMTPVDREMAGFAHAEIRAKGIDLRLGAALKSVEYRPAATLPSAESGESLEHKHVEGELDLLLSNGDTLTTDILIMAIGVRPETKLAAEAGLQLGELGGIWVNEQMQTSDPAIYAVGDAVEEKDFVTGKQTLVPLAGPANRQGRMAADNMLGRNESYQGTQGTAICKIFDLAVASTGKNEKQLKREGIAYEKVYVHTASHASYYPGAEVVSFKMLFDPQTGKIFGAQAVGKDGIDKRIDVMAVAQRAGMTVEQLQHLELTYAPPFGSAKDVINQAAFVATNLIKGDAKAIHFDEIDNLTDEQVLLDVRNPMELQNMGYLPGAINIPVDQLRQHMNELPKDKEIVIYCQVGLRGNVAYRQLVNNGFKARNLIGGYRTYKFAKAEGHHHHHH | soluble
11 | MRNNQPVTQKEVTYPPHFNLLSTTTLSSHIKYASKEFCDVAGYTLDELVNQPHNMVRHPDMPPEAFKDMWEHLKAGKSWMGMVKNRCKNGDHYWVDAFASPIKENGK | not soluble
12 | MEIVDTRTPNSKRFISGVTGDWEVIIGMEVHAQIISNSKLFSGASTKFGAEPNNHVSLIDAAMPGMLPVLNQECVRQAVRTGLGLKARINLRSVFDRKNYFYPDLPQGYQISQFRYPIVGEGKIIISIGPDSNGQFEDIEVGIERLHLEQDAGKSMHDQHPTMSFVDLNRSGVALMEIVSKPDMRSADEAKAYMTKLRTIVRYLGTCDGNMDEGSMRADVNVSVRRPGESFGTRCEIKNVNSIRFIGQAIEYEARRQIAILEDGGVIDQETRLFDAAKGETRSMRSKEEAHDYRYFPDPDLLPLEFDQAFVDALAAELPELPDDIKIRFINEMGLTAYDASILVTEKAIANYFEKVAHGRDGKTVANWVINDLLGALNKDNREIEETPVSPDQLGSIIDLIKEGTISGKIAKDLFEIIWHEGGDPRQIVEERNMKQVTDTKAIERAVDEIMANNSDKVAQAKQKPALAGWFVGQVMKTTGGKANPQTVNELVKLKLGID | not soluble
13 | MPGIDIVIVNWNSGNQLRECLRSIGNLVGEAEPLTVTVVDNASCDGSADGLPEPSCPLRVIRNRANLGFGRASNLGAREGSADYLLFLNPDTRLHPGALSIPLGFMESETGRHVGICGVQCLDETGGVARCCARFPTAWRLVGQALGLDRLFPRWIPPHFLGEWPHDSDRDVDQVIGAFFFVRRAVFEQLGGFDERFFVYYEDLDFALRARRAGWGSRYLAGARIFHRGGGVSRQISARRLHYLTHSKLRYARKHFAGIDAFLVSAAVLLLEPLARSAYALGRGRPGEFADTWKAFGGLYASLCRPGENGRLEHHHHHH | not soluble
14 | MLGNIAEISNPNERRQAVKALVSAVKSDEDDSVRAAATDALYQRGEDAFDYLVAELAEMGGSEATERTATTLLTEWLSADHLEFRMVAATALGERGATAAVPDLVRALTDPAPRVRTRAAQACGRLSDPRVVPPLSERLSDGRQQVREAAANALGAIGTDRALAELVPVTQADEEGLRLIAVDELGQFGSVKPVVVLVDALDDDSTTVQRAAMLSLLELLTTASTEELELIRGTVVDELARADVQATVPALLDIAADGTRRRYRQTAIWLLSRITGDRYRSEVIDCLLSTLDKPDEETAQLAEAVLPELRSPELEKRLRVYLSRERGSEEARSRAQAVLDEICDGSSGELVTTGVDYTYVDSPADYTNQHSSRD | not soluble
15 | MMKQNPILITGGTGTVGSRIASRLIKLGYRVRIASRKKGALADAEYVYFNWKYASSFTPALEQVKQIYLVAPVGVFDPAPYVLPFLKEAKRLGAKRVVMQSASVVSENGPVFGALHQAVREFPEWTVLRPSYFMQNFINVQHRMSIQTEGRITTASGEGKLGFIDADDIAETAVRALIDDVPHQTHHILTGPEALSYAEAAEIIGAAAGRRVEHVSISRSELQHKMEAGGLPADYAHFMAKLDEAISHGAEHRVTDTVKRVTGKEPRSLSEFAAAHAAYWTSFWTELEHHHHHH | not soluble
16 | MGQGQTKSEQKLSEQTLRKFYDAQLENQLIAENLKWAQQRAVDLLKVRDQLQWEVLAAATTTVVLLAAGSIYKRKDVIIPIVPLIMGCGYQYDVAHGDNRQLVRETAVELLKTPEELHMLPAITLRDIDEFRDSHKL | not soluble
17 | MSFFKKLAASAGIGAAKVDTILEKDAYFPGEEVQGTVHVKGGKIAQDIRYIDLQLSTRYVIVKDDEEHRKYATIHSFRVTGSFTIQPGEEHQFPFTFTLPLDTPITVGKVEVAVVTDLDIQGGIDKSDHDRIFVEAHPWIENVLEAIENLGFRLNEADCEQAPYFQRRFPFVQEFEFVPTSGYYRQMLDELELIFLLGEDGLEIIFEVDRRARGLRGWLEEMYNDGEQLVRVRFSQSELEDAEELEEVLEEILDQYVE | soluble
18 | MGSDKIHHHHHHMGDLTADVLVIGGGTAGFGAAVAAGRLGLDVVLLEAGTKVGGVMAFCPGMPWGAAYPQDESIGGLMQELTDRLMGMDPPMAEKRPCTLENFGPEIQYDHDAATTMMFEMLEEAGVRVFLGAVAFAPVMEGNRIAAVEFFDRRCPQRIAAKIVIDCSGDGDISAKAGVPFTLGDGQGNMMAVTLSFFMEGADWDRVFAENDPYFRRYAAKGIAEGRLHPHLAQLYLMKGFHPGTVFCNSVAIRGVDGTDPADVTRATQEGRRRCLQLAQFLRADVPGFEAAHMSQLGPTVGVRETRKLEGMYKVTGADLAAGTKFADGIVACDNPIDDVMRTSDQMTHDAMVERGGYYTIPFRSLLPKAVANLMFAGRILSADLVAFASVRGMPQCMAMGQATGTAAHLAIRDGAPVQQVDRAELVKLLSEQGVSRLLS | not soluble
